Test results as given in the supplement of paper PMC10065799, “High-throughput profiling of sequence recognition by tyrosine kinases and SH2 domains using bacterial peptide display” (eLife, 2023).

Tests used:
c-Src SH2 = assay: SH2 binding enrichment of the phosphorylated peptide, bacterial display (enrichment ratio); higher = better substrate or ligand; peptides without Tyr show the background
Grb2 SH2 = Grb2 SH2 (UniProt P62993); assay: as above
SHP2-C SH2 = assay: as above
Hck = Hck (UniProt P08631); assay: phosphorylation enrichment, bacterial display (enrichment ratio); higher = better substrate or ligand; peptides without Tyr show the background
FGFR1 = FGFR1 (UniProt P11362); assay: as above
EPHB1 = EPHB1 (UniProt P54762); assay: as above
Jak2 = Jak2 (UniProt O60674); assay: as above
AncSZ = assay: as above
Fer (mouse) = assay: as above
Fyn = Fyn (UniProt P06241); assay: as above
c-Abl (mouse) = assay: as above
c-Src = assay: as above
EPHB2 = EPHB2 (UniProt P29323); assay: as above
Fes = Fes (UniProt P07332); assay: as above
MERTK = MERTK (UniProt Q12866); assay: as above
FGFR3 = FGFR3 (UniProt P22607); assay: as above
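Throughout, for SH2 binding enrichment of the phosphorylated peptide, bacterial display: peptide library displayed on the E. coli surface as eCPX fusions, selected cells deep-sequenced, score is each peptide's frequency after selection divided by its frequency in the input.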
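Throughout, for phosphorylation enrichment, bacterial display: 11-residue human phosphosite peptides and single-mutation variants displayed on the E. coli surface, counted by deep sequencing, each peptide's frequency after selection divided by its frequency in the unselected input library; frequency after pTyr selection over input frequency; kinase dosed for 20-30% of maximal phosphorylation in three min.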

Sequence of Jak2 (O60674 whole entry, looked up): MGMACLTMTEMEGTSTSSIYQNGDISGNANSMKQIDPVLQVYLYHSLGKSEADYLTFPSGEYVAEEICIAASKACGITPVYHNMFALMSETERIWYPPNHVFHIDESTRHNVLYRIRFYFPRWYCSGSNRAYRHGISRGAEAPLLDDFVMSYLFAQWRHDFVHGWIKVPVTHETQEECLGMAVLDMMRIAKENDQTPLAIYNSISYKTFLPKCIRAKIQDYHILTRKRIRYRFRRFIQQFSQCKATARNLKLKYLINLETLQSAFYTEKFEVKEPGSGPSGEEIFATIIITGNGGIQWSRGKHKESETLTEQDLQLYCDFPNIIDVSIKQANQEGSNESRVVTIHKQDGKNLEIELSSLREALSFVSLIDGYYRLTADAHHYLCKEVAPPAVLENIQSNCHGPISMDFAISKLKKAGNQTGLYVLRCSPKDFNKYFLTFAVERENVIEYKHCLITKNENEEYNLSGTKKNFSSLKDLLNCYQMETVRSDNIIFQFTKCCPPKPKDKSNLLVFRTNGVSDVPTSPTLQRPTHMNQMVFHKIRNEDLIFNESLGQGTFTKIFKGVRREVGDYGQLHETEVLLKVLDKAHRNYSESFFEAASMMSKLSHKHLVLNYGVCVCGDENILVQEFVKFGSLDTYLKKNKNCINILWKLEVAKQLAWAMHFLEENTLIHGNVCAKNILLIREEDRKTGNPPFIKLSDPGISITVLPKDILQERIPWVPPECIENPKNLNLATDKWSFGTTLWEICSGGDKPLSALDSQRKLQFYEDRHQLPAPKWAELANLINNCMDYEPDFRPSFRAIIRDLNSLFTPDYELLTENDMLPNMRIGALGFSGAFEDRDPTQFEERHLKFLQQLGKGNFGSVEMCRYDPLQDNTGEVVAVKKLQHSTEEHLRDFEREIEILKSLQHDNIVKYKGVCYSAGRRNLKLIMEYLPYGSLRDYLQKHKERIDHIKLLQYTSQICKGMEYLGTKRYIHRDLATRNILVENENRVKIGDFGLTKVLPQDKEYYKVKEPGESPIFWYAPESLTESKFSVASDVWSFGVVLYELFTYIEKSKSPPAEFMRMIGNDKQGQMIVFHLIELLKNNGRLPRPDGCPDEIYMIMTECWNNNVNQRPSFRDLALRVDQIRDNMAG
Sequence of Hck (P08631 whole entry, looked up): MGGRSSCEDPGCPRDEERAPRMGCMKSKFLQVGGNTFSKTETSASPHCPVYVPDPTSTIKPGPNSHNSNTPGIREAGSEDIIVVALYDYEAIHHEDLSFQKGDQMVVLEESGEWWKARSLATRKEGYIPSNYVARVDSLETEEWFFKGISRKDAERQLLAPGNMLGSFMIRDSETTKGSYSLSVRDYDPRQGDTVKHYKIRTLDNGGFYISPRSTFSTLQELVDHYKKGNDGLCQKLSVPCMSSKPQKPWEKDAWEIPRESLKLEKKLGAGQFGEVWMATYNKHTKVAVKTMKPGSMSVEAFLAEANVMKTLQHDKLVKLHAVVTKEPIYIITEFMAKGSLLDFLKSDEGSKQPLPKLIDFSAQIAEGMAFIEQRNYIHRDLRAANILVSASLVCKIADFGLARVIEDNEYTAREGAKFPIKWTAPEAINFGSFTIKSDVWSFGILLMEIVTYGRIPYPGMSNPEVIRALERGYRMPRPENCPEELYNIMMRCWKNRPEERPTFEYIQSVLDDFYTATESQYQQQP
Sequence of Fyn (P06241 whole entry, looked up): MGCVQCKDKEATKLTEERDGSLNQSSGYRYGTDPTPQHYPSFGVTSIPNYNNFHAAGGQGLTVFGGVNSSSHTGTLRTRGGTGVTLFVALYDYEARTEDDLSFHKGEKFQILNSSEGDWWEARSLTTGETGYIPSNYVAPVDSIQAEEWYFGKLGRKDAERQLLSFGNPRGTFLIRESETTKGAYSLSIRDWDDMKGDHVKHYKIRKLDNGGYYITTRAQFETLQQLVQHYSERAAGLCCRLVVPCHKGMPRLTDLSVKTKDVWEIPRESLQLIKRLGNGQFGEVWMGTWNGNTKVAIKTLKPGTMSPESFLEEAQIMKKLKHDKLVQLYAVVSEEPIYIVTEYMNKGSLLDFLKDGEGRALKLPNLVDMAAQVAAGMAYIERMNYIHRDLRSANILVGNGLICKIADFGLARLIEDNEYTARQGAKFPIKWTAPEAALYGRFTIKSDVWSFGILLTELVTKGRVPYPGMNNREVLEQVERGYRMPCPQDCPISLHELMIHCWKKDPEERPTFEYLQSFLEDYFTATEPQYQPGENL
Sequence of EPHB2 (P29323 whole entry, looked up): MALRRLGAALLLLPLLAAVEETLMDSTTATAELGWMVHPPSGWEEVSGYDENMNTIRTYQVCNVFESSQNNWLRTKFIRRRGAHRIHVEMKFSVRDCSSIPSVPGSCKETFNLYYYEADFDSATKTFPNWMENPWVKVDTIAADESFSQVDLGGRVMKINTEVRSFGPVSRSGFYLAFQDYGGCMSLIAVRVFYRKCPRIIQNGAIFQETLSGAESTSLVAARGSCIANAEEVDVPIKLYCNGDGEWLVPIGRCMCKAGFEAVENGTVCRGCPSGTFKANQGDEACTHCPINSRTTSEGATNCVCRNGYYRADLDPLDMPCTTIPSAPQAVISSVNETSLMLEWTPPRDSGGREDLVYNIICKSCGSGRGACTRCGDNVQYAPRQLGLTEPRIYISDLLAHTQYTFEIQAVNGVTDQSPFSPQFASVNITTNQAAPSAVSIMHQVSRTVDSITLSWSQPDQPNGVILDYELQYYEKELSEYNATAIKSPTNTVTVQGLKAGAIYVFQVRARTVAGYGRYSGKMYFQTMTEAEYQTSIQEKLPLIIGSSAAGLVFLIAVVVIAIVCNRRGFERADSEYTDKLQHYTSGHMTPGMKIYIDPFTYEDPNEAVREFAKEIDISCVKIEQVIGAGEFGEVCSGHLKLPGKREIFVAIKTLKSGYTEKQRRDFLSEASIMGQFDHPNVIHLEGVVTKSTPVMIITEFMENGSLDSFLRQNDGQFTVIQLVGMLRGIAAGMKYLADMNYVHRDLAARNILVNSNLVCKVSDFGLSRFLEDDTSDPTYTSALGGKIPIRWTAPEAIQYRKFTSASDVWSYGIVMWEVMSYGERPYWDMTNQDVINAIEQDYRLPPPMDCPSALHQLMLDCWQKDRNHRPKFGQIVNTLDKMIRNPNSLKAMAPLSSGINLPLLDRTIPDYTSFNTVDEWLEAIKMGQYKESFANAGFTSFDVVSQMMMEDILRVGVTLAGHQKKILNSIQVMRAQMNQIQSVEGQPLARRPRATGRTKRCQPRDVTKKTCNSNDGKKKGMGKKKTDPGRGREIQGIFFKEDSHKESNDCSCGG
Sequence of MERTK (Q12866 whole entry, looked up): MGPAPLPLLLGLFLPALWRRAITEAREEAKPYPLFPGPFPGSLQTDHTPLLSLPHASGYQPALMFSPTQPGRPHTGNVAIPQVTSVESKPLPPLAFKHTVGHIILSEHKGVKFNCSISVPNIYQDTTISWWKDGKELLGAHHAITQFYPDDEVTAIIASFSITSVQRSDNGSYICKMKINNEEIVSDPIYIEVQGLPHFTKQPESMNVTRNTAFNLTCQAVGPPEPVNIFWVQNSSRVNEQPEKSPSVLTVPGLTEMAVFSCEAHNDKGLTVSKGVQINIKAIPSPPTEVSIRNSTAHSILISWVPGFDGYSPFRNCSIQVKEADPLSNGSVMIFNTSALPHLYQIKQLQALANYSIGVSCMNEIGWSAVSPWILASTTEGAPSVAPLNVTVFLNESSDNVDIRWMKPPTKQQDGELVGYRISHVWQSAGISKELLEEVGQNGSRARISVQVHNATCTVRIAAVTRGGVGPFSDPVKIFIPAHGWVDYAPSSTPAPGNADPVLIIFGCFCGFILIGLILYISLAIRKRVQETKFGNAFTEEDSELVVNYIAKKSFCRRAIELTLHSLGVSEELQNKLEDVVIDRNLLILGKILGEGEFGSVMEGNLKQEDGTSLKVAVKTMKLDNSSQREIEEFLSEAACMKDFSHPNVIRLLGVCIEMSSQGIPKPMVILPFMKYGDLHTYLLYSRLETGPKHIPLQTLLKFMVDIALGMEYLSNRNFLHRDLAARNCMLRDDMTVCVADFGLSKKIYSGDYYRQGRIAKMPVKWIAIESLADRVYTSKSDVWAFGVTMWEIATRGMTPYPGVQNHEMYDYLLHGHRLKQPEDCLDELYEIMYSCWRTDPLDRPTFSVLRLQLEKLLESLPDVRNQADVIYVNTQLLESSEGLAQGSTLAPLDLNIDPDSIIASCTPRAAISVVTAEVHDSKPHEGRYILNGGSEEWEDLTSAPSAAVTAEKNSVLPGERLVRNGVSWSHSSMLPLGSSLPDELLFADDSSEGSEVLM
Sequence of FGFR1 (P11362 whole entry, looked up): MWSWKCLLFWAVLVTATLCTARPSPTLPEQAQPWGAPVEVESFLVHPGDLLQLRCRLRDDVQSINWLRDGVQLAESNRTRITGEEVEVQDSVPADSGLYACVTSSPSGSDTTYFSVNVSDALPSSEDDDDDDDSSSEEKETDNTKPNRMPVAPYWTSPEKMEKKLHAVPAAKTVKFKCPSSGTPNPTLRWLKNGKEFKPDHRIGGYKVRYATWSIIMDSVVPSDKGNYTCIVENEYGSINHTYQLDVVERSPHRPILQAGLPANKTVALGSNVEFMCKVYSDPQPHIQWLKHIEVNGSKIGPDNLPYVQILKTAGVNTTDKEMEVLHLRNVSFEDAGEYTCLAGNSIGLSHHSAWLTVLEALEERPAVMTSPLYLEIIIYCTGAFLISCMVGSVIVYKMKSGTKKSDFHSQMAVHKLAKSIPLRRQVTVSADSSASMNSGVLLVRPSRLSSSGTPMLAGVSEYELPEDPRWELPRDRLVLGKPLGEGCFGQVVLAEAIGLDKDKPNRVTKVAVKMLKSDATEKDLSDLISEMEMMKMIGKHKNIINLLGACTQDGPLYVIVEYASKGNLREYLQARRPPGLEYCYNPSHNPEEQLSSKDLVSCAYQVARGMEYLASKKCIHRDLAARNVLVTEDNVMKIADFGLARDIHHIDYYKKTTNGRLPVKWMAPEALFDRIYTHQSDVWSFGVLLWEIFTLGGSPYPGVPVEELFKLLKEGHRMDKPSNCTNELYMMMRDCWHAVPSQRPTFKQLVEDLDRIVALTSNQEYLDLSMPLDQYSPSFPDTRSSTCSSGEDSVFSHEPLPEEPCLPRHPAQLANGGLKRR

Sequence	SH2 binding enrichment (c-Src SH2)	SH2 binding enrichment (Grb2 SH2)	SH2 binding enrichment (SHP2-C SH2)	phosphorylation enrichment (Hck)	phosphorylation enrichment (FGFR1)	phosphorylation enrichment (EPHB1)	phosphorylation enrichment (Jak2)	phosphorylation enrichment (AncSZ)	phosphorylation enrichment (Fer (mouse))	phosphorylation enrichment (Fyn)	phosphorylation enrichment (c-Abl (mouse))	phosphorylation enrichment (c-Src)	phosphorylation enrichment (EPHB2)	phosphorylation enrichment (Fes)	phosphorylation enrichment (MERTK)	phosphorylation enrichment (FGFR3)
LITTLYSGFLG [KCNQ1_Y267_I268S]	1.44	1.54	1.56	3.96	0.339	0.965	0.992	1.38	0.824	5.49	1.22	6.52	0.611	1.08	3.39	0.755
AIDVGYRLIDC [AKR1B1_Y40_H42L]	2.02	0.993	0.7	0.417	0.514	0.456	0.792	0.874	0.424	0.428	0.861	0.512	0.45	1.2	0.39	0.594
RNEAFYDTFST [EFCAB3_Y372_S370A]	0.801	1.05	0.842	10.2	0.652	1.98	1.46	1.32	7.96	11.3	4.17	10	3.35	1.14	14.4	0.811
ASLEAYCKHKY [RXRA_Y403]	0.548	0.831	0.733	0.455	0.472	0.53	0.799	0.964	0.424	0.503	0.727	0.411	0.501	1.01	0.392	0.658
LNAGAYSKVVQ [PPT1_Y172]	1.71	0.623	5.07	0.357	0.41	0.703	1.28	1.12	1.02	0.529	0.994	0.84	0.557	0.974	0.627	0.686
IFGVSYDEYRY [CFTR_Y512]	1.36	0.776	0.896	0.617	0.688	0.557	0.882	0.932	0.496	0.644	0.638	1.27	0.504	1.05	0.434	0.664
EPTPGYEVGQR [TSC2_Y1788]	0.6	0.812	0.677	0.566	0.514	0.472	0.672	0.863	0.545	0.51	0.602	0.507	0.585	0.907	0.491	0.591
AACQHYGVHTC [NR4A2_Y275_R278H]	0.584	0.903	0.946	0.443	0.413	0.445	0.432	0.624	0.347	0.433	0.534	0.345	0.471	0.63	0.406	0.585
ADKAAYLQSLN [MYH2_Y389]	0.553	0.86	0.8	0.516	0.506	0.458	0.777	0.779	0.539	0.536	0.546	0.45	0.561	0.789	0.476	0.572
WQQQSYLDLGI [CTNNB1_Y30_S33L]	0.607	1.03	0.766	0.478	1.76	0.719	1.35	0.831	0.515	0.545	0.685	0.517	0.593	0.918	0.511	1.36
KGIQLYDTPFE [SHB_Y297_YF]	2.76	1.3	1.19	1.73	0.511	8.6	0.843	1.13	2.8	0.712	0.965	0.729	12.9	0.911	4.56	0.584
QQLVAYYSKHT [SRC_Y232_A237T]	0.823	0.865	1.48	0.653	0.818	1.42	0.932	1.13	0.42	0.889	0.906	0.591	0.92	0.951	0.629	0.926
KAIMIYVSSFY [ACTN4_Y260_T259I]	0.476	0.816	0.845	0.416	0.464	0.47	1.03	0.963	0.422	0.368	0.972	0.465	0.52	1.08	0.347	0.701
SELVCYDARVH [MET_Y971_R970C]	0.561	0.874	0.739	0.816	0.547	0.592	0.867	1.07	0.49	0.603	0.721	0.482	0.673	1.14	0.496	0.679
FDCKWYIPLTD [BCR_Y756_YF]	0.482	0.772	0.745	0.581	0.661	0.998	1.44	1.45	0.66	0.41	0.826	0.466	0.818	1.49	0.625	1.06
MSYDRYMAICH [OR2A5_Y123]	0.79	0.753	0.605	0.646	0.509	0.846	0.895	0.909	0.498	0.511	0.695	0.485	0.704	1.03	0.484	0.672
KASRKYFAMKI [AKT3_Y173_G171R_YF]	0.472	0.796	0.666	0.388	0.365	0.286	0.569	0.555	0.389	0.359	0.624	0.456	0.391	0.52	0.811	0.363

Sequence	SH2 binding enrichment (c-Src SH2)	SH2 binding enrichment (Grb2 SH2)	SH2 binding enrichment (SHP2-C SH2)	phosphorylation enrichment (Hck)	phosphorylation enrichment (FGFR1)	phosphorylation enrichment (EPHB1)	phosphorylation enrichment (Jak2)	phosphorylation enrichment (AncSZ)	phosphorylation enrichment (Fer (mouse))	phosphorylation enrichment (Fyn)	phosphorylation enrichment (c-Abl (mouse))	phosphorylation enrichment (c-Src)	phosphorylation enrichment (EPHB2)	phosphorylation enrichment (Fes)	phosphorylation enrichment (MERTK)	phosphorylation enrichment (FGFR3)
FRVAGYETQGG [TIA1_Y383_YF]	0.466	0.822	0.745	0.46	0.449	0.428	0.722	0.68	0.43	0.409	0.64	0.463	0.41	0.897	0.437	0.553
FPCSVYMPDEW [INSR_Y1011_V1012M]	0.989	1	0.956	0.596	0.658	0.6	1.1	1.19	0.512	0.875	0.687	3.15	0.644	1.06	0.559	0.712
SVKVYYKKCWS [EPHA7_Y202]	0.393	0.716	0.521	0.424	0.414	0.549	1.21	0.951	0.483	0.352	1.2	0.432	0.432	1.25	0.379	0.733
GGFTCCCDGKK [PROS1_Y266_Y266C_YF]	0.451	0.787	0.62	0.504	0.509	0.736	1.16	1.12	0.542	0.463	0.977	0.546	0.659	1.34	0.468	0.755
VLPIDYFFPPQ [AR_Y552_YF]	0.696	0.986	0.882	0.604	11.5	0.708	0.969	2.91	0.35	0.574	0.502	0.522	0.914	0.82	0.459	9.06
SEKISYVYMKR [SSX7_Y48_L43S]	0.993	1.15	3.87	0.479	0.6	0.553	0.964	0.912	0.387	0.469	0.538	0.444	0.504	0.967	0.385	0.748
SKNSKYNAGST [PSEN1_Y315_E318G]	0.349	0.581	0.557	0.442	0.358	0.307	0.608	0.535	0.436	0.59	0.677	0.737	0.654	0.776	0.536	0.439
VVQGIYGFHHF [UFSP2_Y285_YF]	0.83	1.03	0.923	8.93	0.693	1.75	0.846	0.886	16.3	10.1	5.3	7.39	5.04	1.62	9.74	0.502
VIEFSYTSADG [DHCR7_Y382_C380Y_YF]	1.97	0.87	0.858	0.503	0.444	0.562	0.764	0.944	0.499	0.442	0.608	0.341	0.504	1.16	0.415	0.652
QMVGMYAFSYM [AVPR2_Y124_S126F]	0.562	0.638	0.651	1.52	0.804	2.45	1.44	2.25	4.47	1.55	1.27	1.35	1.84	1.86	6.65	1.15
AHAGEYGAVAL [HBA1_Y25_E28V]	0.486	0.88	0.6	3.27	0.421	0.346	0.511	0.598	0.672	5.54	0.517	2.95	0.582	0.594	0.389	0.509
FIGRIYLYLTK [GARS1_Y414]	0.74	1.05	1.25	0.416	0.487	0.556	1.14	1.64	0.535	0.445	1.18	0.469	0.39	1.12	0.538	0.627
FFRRHYPLTTL [TNS4_Y644]	0.422	1.15	0.566	0.399	0.426	0.408	0.876	0.995	0.455	0.426	0.587	0.516	0.497	0.917	0.491	0.467
RNYDTYTAGLS [RHBDD1_Y264]	0.621	0.707	0.572	5.02	0.602	7.39	0.677	0.955	0.707	1.49	0.729	1.39	14.6	0.901	0.841	0.438
SLDLSYYHTSS [EMD_Y181_P183H]	0.867	0.746	0.692	0.554	1.53	0.765	1.71	1.05	0.453	0.543	0.603	0.524	0.58	0.951	0.578	1.19
IKGIRYLHHQG [GUCY2D_Y656_R660Q]	0.829	0.871	0.716	0.401	0.465	0.45	0.414	0.684	0.417	0.378	0.403	0.428	0.387	0.587	0.455	0.45
